Test results as given in US20260146091A1 (published 2026).

T1: biotinylated mPD-1-Fc (BPS Bioscience) (mouse, UniProt Q02242 25-169, biotinylated (site not stated))
T1 chain: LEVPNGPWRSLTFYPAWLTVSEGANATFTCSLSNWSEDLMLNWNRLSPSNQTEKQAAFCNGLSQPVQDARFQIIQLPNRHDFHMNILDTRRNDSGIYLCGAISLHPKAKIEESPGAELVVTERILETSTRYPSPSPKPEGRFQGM


Columns and labels:
[1] = target: biotinylated hPD-L1 fused to human IgG Fc (BPS Bioscience) (human, UniProt Q9NZQ7 19-238, biotinylated (site not stated)); assay: hPD-1/hPD-L1 binding inhibition
[2] = target: mPD-L1-Fc (mouse PD-L1 ectodomain fused to human IgG1 Fc, BioLegend) (mouse, UniProt Q9EP73 19-239); assay: mPD-1/mPD-L1 binding inhibition
[3] = target: hPD-1-Fc (human PD-1 ectodomain fused to human IgG1 Fc, R&D) (human, UniProt Q15116 25-170); assay: hPD-1/hPD-L1 binding inhibition
[4] = target: T1, biotinylated mPD-1-Fc (BPS Bioscience); assay: mPD-1/mPD-L1 binding inhibition

mPD-L1-Fc (mouse PD-L1 ectodomain fused to human IgG1 Fc, BioLegend), sequence (Q9EP73 19-239): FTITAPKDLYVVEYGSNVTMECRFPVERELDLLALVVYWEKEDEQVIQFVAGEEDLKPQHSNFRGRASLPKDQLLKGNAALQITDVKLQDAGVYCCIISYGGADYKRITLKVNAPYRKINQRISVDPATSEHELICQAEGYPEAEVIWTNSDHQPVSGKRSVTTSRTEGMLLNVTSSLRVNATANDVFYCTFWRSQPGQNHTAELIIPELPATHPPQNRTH
hPD-1-Fc (human PD-1 ectodomain fused to human IgG1 Fc, R&D), sequence (Q15116 25-170): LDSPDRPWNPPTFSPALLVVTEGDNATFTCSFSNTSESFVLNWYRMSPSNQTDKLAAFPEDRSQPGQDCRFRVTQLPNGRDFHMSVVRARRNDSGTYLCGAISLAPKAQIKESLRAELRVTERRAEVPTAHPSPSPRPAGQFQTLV
biotinylated hPD-L1 fused to human IgG Fc (BPS Bioscience), sequence (Q9NZQ7 19-238): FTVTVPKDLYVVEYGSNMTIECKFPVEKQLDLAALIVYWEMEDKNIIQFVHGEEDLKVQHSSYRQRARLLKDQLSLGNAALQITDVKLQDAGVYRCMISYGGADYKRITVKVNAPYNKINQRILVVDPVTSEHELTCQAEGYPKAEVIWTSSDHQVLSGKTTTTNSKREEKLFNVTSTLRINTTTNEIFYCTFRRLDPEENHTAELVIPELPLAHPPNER

Row | IC50 [1] [nM] | IC50 [2] [nM] | IC50 [3] [nM] | IC50 [4] [nM] | Binder
1 | 3.34 | 6.85 |  |  | Nb6p (anti-PD-L1 nanobody) (VHH) VHH: EVQLVESGGGLVQAGGSLRLSCAAAGRSFNSNAMGWVRQAPGKEREIVAVISATGSYTYYEDSVKGRFTISRDNSKNTVSLQMSSLSSEDTAVYYCAGSRTAALTTIMTLFNYWGQGTQVTVSS
2 | 0.498 | 0.889 |  |  | Nb6p-Fc (Nb6p fused to mouse IgG2a Fc domain including hinge) (Fc fusion) AEVQLVESGGGLVQAGGSLRLSCAAAGRSFNSNAMGWVRQAPGKEREIVAVISATGSYTYYEDSVKGRFTISRDNSKNTVSLQMSSLSSEDTAVYYCAGSRTAALTTIMTLFNYWGQGTQVTVSSPGPRGPTIKPCPPCKCPAPNLLGGPSVFIFPPKIKDVLMISLSPIVTCVVVDVSEDDPDVQISWFVNNVEVHTAQTQTHREDYNSTLRVVSALPIQHQDWMSGKEFKCKVNNKDLPAPIERTISKPKGSVRAPQVYVLPPPEEEMTKKQVTLTCMVTDFMPEDIYVEWTNNGKTELNYKNTEPVLDSDGSYFMYSKLRVEKKNWVERNSYSCSVVHEGLHNHHTTKSFSRTPGK
3 |  |  | 5.85 | 1.71 | Nb11 (anti-PD-1 nanobody) (VHH) VHH: QVQLVQSGGGSVQAGDSLRLSCAVSGHPDSSYSMAWFRQAPGKERELVALISWSGAITHYSDSVKDRFTISRDNAKNEMYLQMDSLKPEDTAVYFCQADDPTSELNQYWGQGTQVTVSS
4 |  |  | 0.147 | 0.0439 | Nb11-Fc (Nb11 fused to mouse IgG1 Fc domain including hinge) (Fc fusion) AQVQLVQSGGGSVQAGDSLRLSCAVSGHPDSSYSMAWFRQAPGKERELVALISWSGAITHYSDSVKDRFTISRDNAKNEMYLQMDSLKPEDTAVYFCQADDPTSELNQYWGQGTQVTVSSGCKPCICTVPEVSSVFIFPPKPKDVLTITLTPKVTCVVVDISKDDPEVQFSWFVDDVEVHTAQTQPREEQFNSTFRSVSELPIMHQDWLNGKEFKCRVNSAAFPAPIEKTISKTKGRPKAPQVYTIPPPKEQMAKDKVSLTCMITDFFPEDITVEWQWNGQPAENYKNTQPIMDTDGSYFVYSKLNVQKSNWEAGNTFTCSVLHEGLHNHHTEKSLSHSPGK
